# Measured values: paper PMC9241776, “Azole Resistance-Associated Regulatory Motifs within the Promoter of cyp51A in Aspergillus fumigatus”
# T1: AtrR (Zn2Cys6 cluster and coiled-coil) (Aspergillus fumigatus, UniProt Q4WI89 50-160)
# T1 sequence: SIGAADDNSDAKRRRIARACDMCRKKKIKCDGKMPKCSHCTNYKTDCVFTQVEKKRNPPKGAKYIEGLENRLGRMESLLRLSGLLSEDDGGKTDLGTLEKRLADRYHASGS
# B1: Pcyp51A SrbA* (dsDNA)
# DNA 1: TCTAGAATTCCGAAGTCCGGATGTGTGCTGAGCCGAATGAA
# DNA 2: TTCATTCGGCTCAGCACACATCCGGACTTCGGAATTCTAGA
# Target: T1, AtrR (Zn2Cys6 cluster and coiled-coil)
# Assay: SPR; largely unaffected; SPR as in earlier publications; binding buffer and temperature not in the material (SEC buffer for AtrR and SrbA: 20 mM HEPES, 150 mM NaCl); 1:1 model with mass transport
# Conditions: protein: recombinant; tags: N-terminal MBP, removed by TEV; chain copies: 2
binder,measurement,value
B1,binding result,binds
